# Tests used:
# [1] = target: T1, human TF on MDA-MB-231 cells (43D7-Alexa488 binding) (Homo sapiens, UniProt P13726); test: Antibody competition assay with 43D7; conditions: pre-incubation with unlabeled competitor antibody
# T1 construct: TF-positive MDA-MB-231 cells (ATCC, Manassas, Va., USA); host or cells: MDA-MB-231
# Method: (§1) Alexa Fluor antibodies were generated using Alexa Fluor 488 5-sulfo-[…] esters (ThermoFisher Scientific) following manufacturer's protocol. Excess Alexa Fluor dye was removed from the antibody dye conjugate preparations by gel filtration (ThermoFisher Scientific).
# (§2) After another 1 hr incubation on ice, cells were washed, stained with a viability dye, and analyzed by flow cytometry. The Alexa488 fluorescence data from viable cells was summarized using median fluorescence intensity.
# [2] = target: T2, TF:FVIIa on MDA-MB-231 cells (Homo sapiens, UniProt P13726); test: FXa conversion assay; assay type: cell-based; conditions: concentrations of 25, 50, and 100 nM; FIG. 14A
# T2 construct: MDA-MB-231 cells (ATCC, Manassas, Va., USA) were plated; host or cells: MDA-MB-231
# T2 sequence (P13726 33-295): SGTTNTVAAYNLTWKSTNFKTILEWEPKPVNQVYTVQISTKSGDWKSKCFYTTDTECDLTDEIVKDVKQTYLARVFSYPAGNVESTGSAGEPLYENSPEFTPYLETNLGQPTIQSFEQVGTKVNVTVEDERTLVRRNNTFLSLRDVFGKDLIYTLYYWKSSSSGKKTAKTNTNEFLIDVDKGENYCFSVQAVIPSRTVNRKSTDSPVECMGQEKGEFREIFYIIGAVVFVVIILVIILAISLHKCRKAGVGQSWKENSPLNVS
# Method: To evaluate the ability of TF:FVIIa to convert FX into FXa in the presence of human antibodies against TF, 5×10^4 MDA-MB-231 cells (ATCC, Manassas, Va., USA) were plated into tissue culture-treated black 96-well plates (Greiner Bio-One, Monroe, N.C., USA). […] Upon reconstitution of the binary TF:FVIIa complex with a final concentration of 20 nM of FVIIa, cells were incubated for 5 min at 37° C.
# Briefly, 5×10^4 MDA-MB-231 cells (ATCC, Manassas, Va., USA) were plated into tissue culture-treated black 96-well plates (Greiner Bio-One, Monroe, N.C., USA) and cultured overnight. […] Upon reconstitution of the binary TF:FVIIa complex with a final concentration of 20 nM of FVIIa, cells were incubated for 5 min at 37° C.
# [3] = target: T3, human TF on MDA-MB-231 cells (39A-Alexa488 binding) (Homo sapiens, UniProt P13726); test: Antibody competition assay with 39A; conditions: pre-incubation with unlabeled competitor antibody
# T3 construct: TF-positive MDA-MB-231 cells (ATCC, Manassas, Va., USA); host or cells: MDA-MB-231
# T3 sequence (P13726 33-295): as above
# Method: as §1, §2
# [4] = target: T4, human TF on MDA-MB-231 cells (25A3-Alexa488 binding) (Homo sapiens, UniProt P13726); test: Antibody competition assay with 25A3; conditions: pre-incubation with unlabeled competitor antibody
# T4 construct: TF-positive MDA-MB-231 cells (ATCC, Manassas, Va., USA); host or cells: MDA-MB-231
# T4 sequence (P13726 33-295): as above
# Method: as §1, §2
# [5] = target: T5, human, rat and chimeric human-rat TF constructs expressed on HEK293 cells (Homo sapiens, UniProt P13726, D212E/E215V/N216S/S220F/V221A); test: Live cell staining assay on chimeric TF constructs (epitope binning); assay type: cell-based; conditions: construct h175-189_r (5), human segment replaced by rat segment
# T5 construct: expressed in transfected cells; host or cells: HEK293
# T5 sequence (P13726 33-295 D212E/E215V/N216S/S220F/V221A): as the sequence (P13726 33-295) above, with D180E, E183V, N184S, S188F, V189A counted along it
# Method: (§3) To establish binding of the anti-human TF antibodies to the various TF constructs, HEK293 cells were transfected with a DNA plasmid that co-expresses the TF construct and a green fluorescent protein marker. […] Two days after transfection, cells were collected from the tissue culture plate, stained with 15 μg/ml of the indicated anti-TF antibody, washed, stained with anti-human IgG-Fc Alexa Fluor 647 polyclonal antibody, washed, and stained with the viability dye 4′,6-Diamidino-2-Phenylindole, Dihydrochloride. Upon acquisition of 80,000 live events on a flow cytometer, live cells marked with the fluorescent marker were analyzed for the degree of staining by the anti-TF antibody. […] As used herein, the term “live cell staining assay” refers to the antibody binding assay used in this example.
# (§4) When “Percentage antibody binding to TF construct relative to hTF” in Tables 51 and 52 was less than 50%, the antibody was considered a non-binder (0) in Tables 53 and 54.
# (§5) Each antibody was assigned to an epitope bin in Table 55 based on the combination of unbound constructs from Table 53.
# [6] = target: T6, human, rat and chimeric human-rat TF constructs expressed on HEK293 cells (Homo sapiens, UniProt P13726); test: as above; assay type: cell-based; conditions: construct hTF
# T6 construct: expressed in transfected cells; host or cells: HEK293
# T6 sequence (P13726 33-295, change not shown): as the sequence (P13726 33-295) above
# Method: as §3, §4, §5
# [7] = target: T7, human, rat and chimeric human-rat TF constructs expressed on HEK293 cells (Homo sapiens, UniProt P13726, I184G/K181N/T186I/W190R/Y188T); test: as above; assay type: cell-based; conditions: construct h146-158_r (5), human segment replaced by rat segment
# T7 construct: expressed in transfected cells; host or cells: HEK293
# T7 sequence (P13726 33-295 K181N/I184G/T186I/Y188T/W190R): as the sequence (P13726 33-295) above, with K149N, I152G, T154I, Y156T, W158R counted along it
# Method: as §3, §4, §5
# [8] = target: T8, human, rat and chimeric human-rat TF constructs expressed on HEK293 cells (Homo sapiens, UniProt P13726, N203H/T229K); test: as above; assay type: cell-based; conditions: construct hTF_N171H_T197K
# T8 construct: expressed in transfected cells; host or cells: HEK293
# T8 sequence (P13726 33-295 N203H/T229K): as the sequence (P13726 33-295) above, with N171H, T197K counted along it
# Method: as §3, §4, §5
# [9] = target: T9, human, rat and chimeric human-rat TF constructs expressed on HEK293 cells (Homo sapiens, UniProt P13726, N170G/R168K); test: as above; assay type: cell-based; conditions: construct h133-139_r (2), human segment replaced by rat segment
# T9 construct: expressed in transfected cells; host or cells: HEK293
# T9 sequence (P13726 33-295 R168K/N170G): as the sequence (P13726 33-295) above, with R136K, N138G counted along it
# Method: as §3, §4, §5
# [10] = target: T10, human, rat and chimeric human-rat TF constructs expressed on HEK293 cells (Homo sapiens, UniProt P13726, A200N/K201T/N203H); test: as above; assay type: cell-based; conditions: construct h167-174_r (3), human segment replaced by rat segment
# T10 construct: expressed in transfected cells; host or cells: HEK293
# T10 sequence (P13726 33-295 A200N/K201T/N203H): as the sequence (P13726 33-295) above, with A168N, K169T, N171H counted along it
# Method: as §3, §4, §5
# [11] = target: T11, human, rat and chimeric human-rat TF constructs expressed on HEK293 cells (Homo sapiens, UniProt P13726, K100N); test: as above; assay type: cell-based; conditions: construct hTF_K68N
# T11 construct: expressed in transfected cells; host or cells: HEK293
# T11 sequence (P13726 33-295 K100N): as the sequence (P13726 33-295) above, with K68N counted along it
# Method: as §3, §4, §5
# [12] = target: T12, human, rat and chimeric human-rat TF constructs expressed on HEK293 cells (Homo sapiens, UniProt P13726, D76N/F108L/F82T/G75R/K100N/K73R/L104E/Q101W/S79Y/T72D/Y83G); test: as above; assay type: cell-based; conditions: construct h39-77_r (11), human segment replaced by rat segment
# T12 construct: expressed in transfected cells; host or cells: HEK293
# T12 sequence (P13726 33-295 T72D/K73R/G75R/D76N/S79Y/F82T/Y83G/K100N/Q101W/L104E/F108L): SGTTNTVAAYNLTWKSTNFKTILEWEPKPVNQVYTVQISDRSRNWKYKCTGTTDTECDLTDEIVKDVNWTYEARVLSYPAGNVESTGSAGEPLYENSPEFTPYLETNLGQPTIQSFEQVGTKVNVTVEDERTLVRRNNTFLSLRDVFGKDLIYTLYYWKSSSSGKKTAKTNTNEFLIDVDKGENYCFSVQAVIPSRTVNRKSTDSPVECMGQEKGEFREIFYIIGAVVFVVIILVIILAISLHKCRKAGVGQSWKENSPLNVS
# Method: as §3, §4, §5
# [13] = system: human, rat and chimeric human-rat TF constructs expressed on HEK293 cells; test: as above; assay type: cell-based; conditions: for Antibody binding to TF construct: human segment replaced by rat segment
# Method: as §3, §4, §5
# [14] = target: T13, human, rat and chimeric human-rat TF constructs expressed on HEK293 cells (Homo sapiens, UniProt P13726, K197R/S192D/S195T); test: as above; assay type: cell-based; conditions: construct h159-166_r (3), human segment replaced by rat segment
# T13 construct: expressed in transfected cells; host or cells: HEK293
# T13 sequence (P13726 33-295 S192D/S195T/K197R): as the sequence (P13726 33-295) above, with S160D, S163T, K165R counted along it
# Method: as §3, §4, §5
# [15] = target: T14, human, rat and chimeric human-rat TF constructs expressed on HEK293 cells (Homo sapiens, UniProt P13726, K181N); test: as above; assay type: cell-based
# T14 construct: expressed in transfected cells; host or cells: HEK293
# T14 sequence (P13726 33-295 K181N): as the sequence (P13726 33-295) above, with K149N counted along it
# Method: as §3, §4, §5
# T1 sequence (P13726 33-295): as the sequence (P13726 33-295) above
substance,measurement,setting,value
TF-011 [reference compound],% 43D7 binding,[1],did not reduce
same,inhibition of FX conversion,[2],57-59%
same,% 39A binding,[3],reduced
same,% 25A3 binding,[4],did not reduce
same,Antibody binding to TF construct,[5],"1 (between 50% and 150%, the antibody was considered a binder (1))"
same,Antibody binding to TF construct,[6]; Table 54,"1 (between 50% and 150%, the antibody was considered a binder (1))"
same,Antibody binding to TF construct,[6],"1 (between 50% and 150%, the antibody was considered a binder (1))"
same,Antibody binding to TF construct,[7],"1 (between 50% and 150%, the antibody was considered a binder (1))"
same,Antibody binding to TF construct,[8],"1 (between 50% and 150%, the antibody was considered a binder (1))"
same,Antibody binding to TF construct,[9],"1 (between 50% and 150%, the antibody was considered a binder (1))"
same,Antibody binding to TF construct,[10],"1 (between 50% and 150%, the antibody was considered a binder (1))"
same,Antibody binding to TF construct,[11],"1 (between 50% and 150%, the antibody was considered a binder (1))"
same,Antibody binding to TF construct,[12],"0 (less than 50%, the antibody was considered a non-binder (0))"
same,Epitope Bin,[13]; assignment based on unbound chimeric constructs,1
same,Constructs not bound by antibody,[13]; chimeric human-rat TF constructs of Table 53,"rTF, h1-107_r, h1-77_r, h39-77_r, h78-107_r, h78-107_r.v2, h94-107_r"
same,Antibody binding to TF construct,[13]; construct h1-38_r (14),"1 (between 50% and 150%, the antibody was considered a binder (1))"
same,Antibody binding to TF construct,[13]; construct h1-77_r (25),"0 (less than 50%, the antibody was considered a non-binder (0))"
same,Antibody binding to TF construct,[13]; construct h1-107_r (52),"0 (less than 50%, the antibody was considered a non-binder (0))"
same,Antibody binding to TF construct,[13]; construct h78-93_r (18),"1 (between 50% and 150%, the antibody was considered a binder (1))"
same,Antibody binding to TF construct,[13]; construct h78-107_r.v2 (27),"0 (less than 50%, the antibody was considered a non-binder (0))"
same,Antibody binding to TF construct,[14],"1 (between 50% and 150%, the antibody was considered a binder (1))"
same,Antibody binding to TF construct,"[15]; construct h146-151_r (1), human segment replaced by rat segment","1 (between 50% and 150%, the antibody was considered a binder (1))"
same,Antibody binding to TF construct,[15]; construct hTF_K149N,"1 (between 50% and 150%, the antibody was considered a binder (1))"

# Reference: patent publication US11447566B2, “Anti-tissue factor antibodies, antibody-drug conjugates, and related methods” (Iconic Therapeutics, Inc., priority 2018, dated 2022)
